Key:
Test in all cases: holdup assay
Parameters in all cases: key: below the threshold = too weak to quantify, mostly under pKd 3.1 to 4
GIPC2, Q8TF65 = target: GIPC2, Q8TF65
NOS1, P29475 = target: NOS1, P29475
GRIP2_7, Q9C0E4 = target: GRIP2_7, Q9C0E4
DLG1_1, Q12959 = target: DLG1_1, Q12959
MPDZ_12, O75970 = target: T1, MPDZ_12, O75970
T1 sequence (O75970 1857-1958, limits assumed, looked up): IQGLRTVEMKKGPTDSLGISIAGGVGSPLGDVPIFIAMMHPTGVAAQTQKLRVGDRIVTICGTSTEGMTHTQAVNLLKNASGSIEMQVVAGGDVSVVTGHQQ

PDZD2_2, O15018 = target: T2, PDZD2_2, O15018
T2 sequence (O15018 329-429, limits assumed, looked up): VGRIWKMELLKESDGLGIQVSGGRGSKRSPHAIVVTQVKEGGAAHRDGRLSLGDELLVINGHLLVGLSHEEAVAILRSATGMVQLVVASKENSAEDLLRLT

DLG1_2, Q12959 = target: DLG1_2, Q12959
DLG1_3, Q12959 = target: DLG1_3, Q12959
RADIL, Q96JH8 = target: T3, RADIL, Q96JH8
T3 sequence (Q96JH8 971-1071, limits assumed, looked up): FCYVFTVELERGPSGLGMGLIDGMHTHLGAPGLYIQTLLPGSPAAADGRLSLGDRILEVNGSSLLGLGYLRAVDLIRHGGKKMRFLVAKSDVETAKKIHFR

SNX27, Q96L92 = target: SNX27, Q96L92
DLG2_2, Q15700 = target: DLG2_2, Q15700
APBA3_1, O96018 = target: T4, APBA3_1, O96018
T4 sequence (O96018 389-490, limits assumed, looked up): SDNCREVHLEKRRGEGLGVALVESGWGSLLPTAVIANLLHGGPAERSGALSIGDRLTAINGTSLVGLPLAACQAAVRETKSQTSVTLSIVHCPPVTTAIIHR

PICK1, Q9NRD5 = target: PICK1, Q9NRD5
GRIP1_2, Q9Y3R0 = target: T5, GRIP1_2, Q9Y3R0
T5 sequence (Q9Y3R0 145-248, limits assumed, looked up): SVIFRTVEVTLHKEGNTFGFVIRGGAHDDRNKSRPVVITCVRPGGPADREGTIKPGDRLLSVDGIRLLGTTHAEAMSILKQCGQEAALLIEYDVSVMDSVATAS

FRMPD2_1, Q68DX3 = target: FRMPD2_1, Q68DX3
SNTA1, Q13424 = target: T6, SNTA1, Q13424
T6 sequence (Q13424 82-180, limits assumed, looked up): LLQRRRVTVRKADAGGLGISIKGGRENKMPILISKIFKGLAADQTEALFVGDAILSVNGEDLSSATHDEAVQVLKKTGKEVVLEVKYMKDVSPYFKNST

FRMPD4, Q14CM0 = target: FRMPD4, Q14CM0
GRIP2_6, Q9C0E4 = target: GRIP2_6, Q9C0E4
Inadl_3, Q8NI35 = target: Inadl_3, Q8NI35
DLG4_2, P78352 = target: DLG4_2, P78352
SHANK1, Q9Y566 = target: T7, SHANK1, Q9Y566
T7 sequence (Q9Y566 658-767, limits assumed, looked up): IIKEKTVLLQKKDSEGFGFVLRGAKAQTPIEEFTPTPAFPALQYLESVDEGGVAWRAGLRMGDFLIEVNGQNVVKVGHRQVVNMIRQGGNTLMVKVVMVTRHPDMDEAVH

LRRC7, Q96NW7 = target: T8, LRRC7, Q96NW7
T8 sequence (Q96NW7 1440-1537, limits assumed, looked up): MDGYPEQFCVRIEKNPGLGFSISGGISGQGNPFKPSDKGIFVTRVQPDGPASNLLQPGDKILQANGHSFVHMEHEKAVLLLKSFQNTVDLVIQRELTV

Inadl_1, Q8NI35 = target: Inadl_1, Q8NI35
GRASP, Q7Z6J2 = target: GRASP, Q7Z6J2
LNX2_3, Q8N448 = target: T9, LNX2_3, Q8N448
T9 sequence (Q8N448 463-564, limits assumed, looked up): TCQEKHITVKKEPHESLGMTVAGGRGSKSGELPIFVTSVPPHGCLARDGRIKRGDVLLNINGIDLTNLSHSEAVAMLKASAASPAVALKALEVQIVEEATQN

PARD3_3, Q8TEW0 = target: PARD3_3, Q8TEW0
LIMK2, P53671 = target: LIMK2, P53671
GRIP1_7, Q9Y3R0 = target: T10, GRIP1_7, Q9Y3R0
T10 sequence (Q9Y3R0 999-1096, limits assumed, looked up): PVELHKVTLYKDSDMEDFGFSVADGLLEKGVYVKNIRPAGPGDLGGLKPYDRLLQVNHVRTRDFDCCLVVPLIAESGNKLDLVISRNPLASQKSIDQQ

[1] = plain residues with an end cap or a label only (N-terminal biotin on a linker: ttds)
[2] = plain residues with an end cap or a label only (N-terminal biotin on a linker: gsgsgs; C-terminal amide)
[3] = plain residues with an end cap or a label only (N-terminal biotin on a linker: ahx)

Sequence of DLG4_2, P78352 (P78352 155-259): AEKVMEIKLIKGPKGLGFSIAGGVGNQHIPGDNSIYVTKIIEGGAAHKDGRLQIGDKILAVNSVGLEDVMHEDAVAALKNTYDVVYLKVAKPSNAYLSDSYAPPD
Sequence of GRASP, Q7Z6J2 (Q7Z6J2 96-193): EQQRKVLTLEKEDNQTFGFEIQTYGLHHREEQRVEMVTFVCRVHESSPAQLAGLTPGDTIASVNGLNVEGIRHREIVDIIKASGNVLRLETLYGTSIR
Sequence of LIMK2, P53671 (P53671 143-248): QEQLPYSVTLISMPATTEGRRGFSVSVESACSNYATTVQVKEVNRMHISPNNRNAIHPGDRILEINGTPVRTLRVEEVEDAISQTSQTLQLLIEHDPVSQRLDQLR
Sequence of NOS1, P29475 (P29475 9-101): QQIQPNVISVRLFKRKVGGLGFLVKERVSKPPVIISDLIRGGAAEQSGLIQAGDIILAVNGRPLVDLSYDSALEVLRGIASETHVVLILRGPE
Sequence of DLG2_2, Q15700 (Q15700 189-283): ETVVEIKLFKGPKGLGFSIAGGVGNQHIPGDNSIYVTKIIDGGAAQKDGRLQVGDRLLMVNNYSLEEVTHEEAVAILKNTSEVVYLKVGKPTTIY
Sequence of FRMPD4, Q14CM0 (Q14CM0 67-160): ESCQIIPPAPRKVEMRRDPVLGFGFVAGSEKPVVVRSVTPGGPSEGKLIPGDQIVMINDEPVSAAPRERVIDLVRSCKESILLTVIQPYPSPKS
Sequence of PARD3_3, Q8TEW0 (Q8TEW0 582-685): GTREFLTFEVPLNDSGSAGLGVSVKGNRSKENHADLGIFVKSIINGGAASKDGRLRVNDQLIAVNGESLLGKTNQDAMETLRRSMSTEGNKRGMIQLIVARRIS
Sequence of Inadl_3, Q8NI35 (Q8NI35 359-469): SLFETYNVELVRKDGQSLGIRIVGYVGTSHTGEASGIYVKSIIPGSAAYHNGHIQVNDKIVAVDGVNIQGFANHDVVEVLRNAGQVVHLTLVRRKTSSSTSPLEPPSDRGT
Sequence of Inadl_1, Q8NI35 (Q8NI35 113-229): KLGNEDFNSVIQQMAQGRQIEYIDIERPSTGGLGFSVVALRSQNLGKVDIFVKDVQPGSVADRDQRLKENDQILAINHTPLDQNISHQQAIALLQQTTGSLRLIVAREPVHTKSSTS
Sequence of GRIP2_6, Q9C0E4 (Q9C0E4 648-740): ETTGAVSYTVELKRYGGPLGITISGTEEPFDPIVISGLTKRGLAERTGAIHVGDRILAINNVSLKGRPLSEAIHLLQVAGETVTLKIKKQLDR
Sequence of GRIP2_7, Q9C0E4 (Q9C0E4 934-1023): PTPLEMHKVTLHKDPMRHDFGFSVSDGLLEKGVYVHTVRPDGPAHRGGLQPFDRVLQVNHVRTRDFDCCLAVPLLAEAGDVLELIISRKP
Sequence of GIPC2, Q8TF65 (Q8TF65 112-203): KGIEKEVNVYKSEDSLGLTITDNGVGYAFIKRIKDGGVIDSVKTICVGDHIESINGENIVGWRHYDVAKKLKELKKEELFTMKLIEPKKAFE
Sequence of FRMPD2_1, Q68DX3 (Q68DX3 770-861): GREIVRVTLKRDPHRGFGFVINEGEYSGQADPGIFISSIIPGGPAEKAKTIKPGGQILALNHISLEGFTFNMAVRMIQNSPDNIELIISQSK
Sequence of PICK1, Q9NRD5 (Q9NRD5 17-115): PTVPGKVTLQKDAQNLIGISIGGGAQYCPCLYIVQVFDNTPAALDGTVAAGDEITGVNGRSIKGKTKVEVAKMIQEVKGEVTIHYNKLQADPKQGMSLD

ERKLSSESQV [LRP4, O75096]
pKd (GIPC2, Q8TF65; [1]): 4.22
pKd (NOS1, P29475; [1]): 3.81
pKd (GRIP2_7, Q9C0E4; [1]): below the threshold
pKd (DLG1_1, Q12959; [1]): 3.82
pKd (MPDZ_12, O75970; [1]): below the threshold
pKd (PDZD2_2, O15018; [1]): 4.39
pKd (DLG1_2, Q12959; [1]): 4.75
pKd (DLG1_3, Q12959; [1]): below the threshold
pKd (RADIL, Q96JH8; [1]): below the threshold
pKd (SNX27, Q96L92; [1]): 4.75
pKd (DLG2_2, Q15700; [1]): 4.38
pKd (APBA3_1, O96018; [1]): below the threshold
pKd (PICK1, Q9NRD5; [1]): below the threshold
pKd (GRIP1_2, Q9Y3R0; [1]): 3.7
pKd (FRMPD2_1, Q68DX3; [1]): below the threshold
pKd (SNTA1, Q13424; [1]): 3.78
pKd (FRMPD4, Q14CM0; [1]): below the threshold
pKd (GRIP2_6, Q9C0E4; [1]): below the threshold
pKd (Inadl_3, Q8NI35; [1]): below the threshold
pKd (DLG4_2, P78352; [1]): 4.69
pKd (SHANK1, Q9Y566; [1]): below the threshold
pKd (LRRC7, Q96NW7; [1]): below the threshold
pKd (Inadl_1, Q8NI35; [1]): below the threshold
pKd (GRASP, Q7Z6J2; [1]): below the threshold
pKd (LNX2_3, Q8N448; [1]): below the threshold
pKd (PARD3_3, Q8TEW0; [1]): below the threshold
pKd (LIMK2, P53671; [1]): below the threshold
pKd (GRIP1_7, Q9Y3R0; [1]): below the threshold

TLSLTDSSVDGIPPYR [AXIN1_int, O15169]
pKd (GIPC2, Q8TF65; [2]): below the threshold
pKd (NOS1, P29475; [2]): below the threshold
pKd (GRIP2_7, Q9C0E4; [2]): below the threshold
pKd (DLG1_1, Q12959; [2]): below the threshold
pKd (MPDZ_12, O75970; [2]): 3.55
pKd (PDZD2_2, O15018; [2]): below the threshold
pKd (DLG1_2, Q12959; [2]): below the threshold
pKd (DLG1_3, Q12959; [2]): below the threshold
pKd (RADIL, Q96JH8; [2]): below the threshold
pKd (SNX27, Q96L92; [2]): below the threshold
pKd (DLG2_2, Q15700; [2]): below the threshold
pKd (APBA3_1, O96018; [2]): below the threshold
pKd (PICK1, Q9NRD5; [2]): below the threshold
pKd (GRIP1_2, Q9Y3R0; [2]): below the threshold
pKd (FRMPD2_1, Q68DX3; [2]): below the threshold
pKd (SNTA1, Q13424; [2]): below the threshold
pKd (FRMPD4, Q14CM0; [2]): below the threshold
pKd (GRIP2_6, Q9C0E4; [2]): below the threshold
pKd (Inadl_3, Q8NI35; [2]): below the threshold
pKd (DLG4_2, P78352; [2]): below the threshold
pKd (SHANK1, Q9Y566; [2]): below the threshold
pKd (LRRC7, Q96NW7; [2]): below the threshold
pKd (Inadl_1, Q8NI35; [2]): below the threshold
pKd (GRASP, Q7Z6J2; [2]): below the threshold
pKd (LNX2_3, Q8N448; [2]): below the threshold
pKd (PARD3_3, Q8TEW0; [2]): below the threshold
pKd (LIMK2, P53671; [2]): below the threshold
pKd (GRIP1_7, Q9Y3R0; [2]): below the threshold

IYVPEAQTRL [DLGAP4, Q9Y2H0]
pKd (GIPC2, Q8TF65; [1]): below the threshold
pKd (NOS1, P29475; [1]): 3.76
pKd (GRIP2_7, Q9C0E4; [1]): below the threshold
pKd (DLG1_1, Q12959; [1]): below the threshold
pKd (MPDZ_12, O75970; [1]): below the threshold
pKd (PDZD2_2, O15018; [1]): below the threshold
pKd (DLG1_2, Q12959; [1]): below the threshold
pKd (DLG1_3, Q12959; [1]): below the threshold
pKd (RADIL, Q96JH8; [1]): below the threshold
pKd (SNX27, Q96L92; [1]): 5.41
pKd (DLG2_2, Q15700; [1]): below the threshold
pKd (APBA3_1, O96018; [1]): below the threshold
pKd (PICK1, Q9NRD5; [1]): below the threshold
pKd (GRIP1_2, Q9Y3R0; [1]): below the threshold
pKd (FRMPD2_1, Q68DX3; [1]): below the threshold
pKd (SNTA1, Q13424; [1]): 3.98
pKd (FRMPD4, Q14CM0; [1]): 4.25
pKd (GRIP2_6, Q9C0E4; [1]): below the threshold
pKd (Inadl_3, Q8NI35; [1]): below the threshold
pKd (DLG4_2, P78352; [1]): below the threshold
pKd (SHANK1, Q9Y566; [1]): 5.54
pKd (LRRC7, Q96NW7; [1]): below the threshold
pKd (Inadl_1, Q8NI35; [1]): below the threshold
pKd (GRASP, Q7Z6J2; [1]): 4.2
pKd (LNX2_3, Q8N448; [1]): below the threshold
pKd (PARD3_3, Q8TEW0; [1]): 3.87
pKd (LIMK2, P53671; [1]): below the threshold
pKd (GRIP1_7, Q9Y3R0; [1]): 3.77

HTHSYIETHV [CNKSR2, Q8WXI2]
pKd (GIPC2, Q8TF65; [3]): below the threshold
pKd (NOS1, P29475; [3]): 3.85
pKd (GRIP2_7, Q9C0E4; [3]): below the threshold
pKd (DLG1_1, Q12959; [3]): 4.62
pKd (MPDZ_12, O75970; [3]): below the threshold
pKd (PDZD2_2, O15018; [3]): 4.24
pKd (DLG1_2, Q12959; [3]): 5.1
pKd (DLG1_3, Q12959; [3]): 3.85
pKd (RADIL, Q96JH8; [3]): 4.22
pKd (SNX27, Q96L92; [3]): 5.7
pKd (DLG2_2, Q15700; [3]): 4.42
pKd (APBA3_1, O96018; [3]): below the threshold
pKd (PICK1, Q9NRD5; [3]): below the threshold
pKd (GRIP1_2, Q9Y3R0; [3]): below the threshold
pKd (FRMPD2_1, Q68DX3; [3]): below the threshold
pKd (SNTA1, Q13424; [3]): 4.93
pKd (FRMPD4, Q14CM0; [3]): below the threshold
pKd (GRIP2_6, Q9C0E4; [3]): below the threshold
pKd (Inadl_3, Q8NI35; [3]): 3.66
pKd (DLG4_2, P78352; [3]): 4.98
pKd (SHANK1, Q9Y566; [3]): 4.24
pKd (LRRC7, Q96NW7; [3]): 4.75
pKd (Inadl_1, Q8NI35; [3]): below the threshold
pKd (GRASP, Q7Z6J2; [3]): 3.47
pKd (LNX2_3, Q8N448; [3]): below the threshold
pKd (PARD3_3, Q8TEW0; [3]): below the threshold
pKd (LIMK2, P53671; [3]): below the threshold
pKd (GRIP1_7, Q9Y3R0; [3]): below the threshold

From paper PMC9482650, “Quantitative fragmentomics allow affinity mapping of interactomes” (Nature Communications, 2022)
